Measured values taken from the supplement of paper PMC10201428.
± gives the standard deviation of the averaged measurements.

test system: VchCAST RNA-guided transposition machinery (E. coli BL21(DE3) host, lacZ target); test: relative integration efficiency (T-LR orientation) vs wild-type transposon end (log2 (normalized fold change)); transposon end mutated: right end (5 bp flank + 75 bp right end); higher = more efficient transposition
In short: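 Co-transformation of E. coli BL21(DE3) combined a pUC57 mini-transposon donor, holding barcoded pools of 1549 left-end or 1849 right-end variants, with a T7-driven plasmid encoding a CRISPR array, tniQ-cas8-cas7-cas6 and tnsA-tnsB-tnsC. After plating with 0.1 mM IPTG at 37°C for 18 h, input plasmids and genomic integration junctions were PCR-amplified and Illumina-sequenced across two biological output replicates, with four reference barcodes. Relative integration efficiency is the normalised, log-transformed output/input barcode fold change.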

Question: How did the “relative integration efficiency (log2)” value turn out when “ACATTTGTTGATACAACCATAAAATGATAATTACACCCATAAATTGATAATTATCACACCCATAAATTGATATTGCAGAGGATCATAGTCAGACCAACATTGCTACGACCCGTATTCGCACCGACAC” was run?
Answer: Its value is -0.044 ± 0.11.

Question: Which “relative integration efficiency (log2)” value does the source give for “ACATTTGCTGATACAACCATATAATGATAATAACACCCATAAAATGATAATTATCACACCCAATTTAACTATAACGCTCTGATCATAGTCAGACCAACATTGCTACGACCCGTATTCGCACCGACAC” here?
Answer: Its value is 0.121 ± 0.33.

Question: “ACATTTGTTGATACCACCATAAAATGGTAATTACACCCATAAATTGATAATTATCACACCCAATTTAACTATAACGCTCTGATCATAGTCAGACCAACATTGCTACGACCCGTATTCGCACCGACAC” was tested. Which “relative integration efficiency (log2)” value did it give?
Answer: Its value is 2.15 ± 0.17.

Question: Which “relative integration efficiency (log2)” value does the source give for “ACATTTGTTGATACAACCATATATTGATATCTCCAACCATAAAGTGATATTTATCACACCCATAAATTGATATTGCCTCTGATCATAGTCAGACCAACATTGCTACGACCCGTATTCGCACCGACAC” here?
Answer: The value was -0.302 ± 0.25.

Question: “ACATTTGTTGATACAACCATAAAATGATAATTACTCTGCACCCATAAATTGATAATTATCACACCCATAAATTGATATTGCATCATAGTCAGACCAACATTGCTACGACCCGTATTCGCACCGACAC” was tested. Which “relative integration efficiency (log2)” value did it give?
Answer: Its value is 0.55 ± 0.061.

Question: Which “relative integration efficiency (log2)” value does the source give for “ACATTTGTTGATACAACCATAAAATGATAATTACACCCATAAATTGATAATTACACCCATAAATTGATATTGCCTCTGATCATAGTCAGACCAACATTGCTACGACCCGTATTCGCACCGACACTGA” here?
Answer: The value was 1.39 ± 0.33.

Question: With “ACATTTGTTGATACAACCATATATTGATATCTCCAACCATATATTGATATCTCTCACACCCATAAATTGATAATTACTCTGATCATAGTCAGACCAACATTGCTACGACCCGTATTCGCACCGACAC” as the sequence, how does the “relative integration efficiency (log2)” value read?
Answer: Its value is 0.23 ± 0.045.

Question: How did the “relative integration efficiency (log2)” value turn out when “ACATTTGTTGCGCAAACCATAAAATGATAATTACACCCATAAATTGATAATTATCACACCCATAAATTGATATTGCCTCTGATCATAGTCAGACCAACATTGCTACGACCCGTATTCGCACCGACAC” was run?
Answer: Its value is -2.91 ± 0.35.

Question: Which “relative integration efficiency (log2)” value does the source give for “ACATTTGTTGATACAACCATAAAATGATAATTACACCCATAAATTGATAATTATCACACCCATAAATTGATATTGCCTCTGATCAGGAATTGTGAGCGGATAACAATTTAGTCAGACGCACCGACAC” here?
Answer: The value was 0.397 ± 0.067.

Question: “ACATTTGTTGATACAACCATAAAATGTATTAATCACCCATAAATTGTATTAATTCACACCCATAAATTGTATAACGCTCTGATCATAGTCAGACCAACATTGCTACGACCCGTATTCGCACCGACAC” was tested. Which “relative integration efficiency (log2)” value did it give?
Answer: The value was -2.39 ± 0.35.

Question: “ACATTTGTTGATACACCCATAAATTGATAATTACACCCATAAATTGATAATTATCACACCCATAAATTGATATTGCCTCTGATCATAGTCAGACCAACATTGCTACGACCCGTATTCGCACCGACAC” was tested. Which “relative integration efficiency (log2)” value did it give?
Answer: The value was -0.0387 ± 0.31.

Question: For “ACATTTGTTGATACAACCATAAAATGATAATTACAAAACTAAATTGATAATTATCACACCCATAAATTGATATTGCCTCTGATCATAGTCAGACCAACATTGCTACGACCCGTATTCGCACCGACAC”, which “relative integration efficiency (log2)” value is on record?
Answer: Its value is -2.92 ± 0.79.

Question: How did the “relative integration efficiency (log2)” value turn out when “ACATTTGTTGATACAACCATTTTTTGATAATTACACCCATAAATTGATAATTATCACACCCATAAATTGATATTGCCTCTGATCATAGTCAGACCAACATTGCTACGACCCGTATTCGCACCGACAC” was run?
Answer: The value was -0.748 ± 0.44.

Question: How did the “relative integration efficiency (log2)” value turn out when “ACATTTGTTGATACAACCATAAAATGATAATTACTCTGATCATAGTCAGACCAACATTGCTACGACCCGTATTCGCACCGACACAACGCACCCATAAATTGATAATTATCAGTGGGTATTTAACTAT” was run?
Answer: Its value is 1.8 ± 0.1.

Question: With “ACATTTGTTGATACAACCATAAGTTGATATTTTCAACCATAAAGTGATATTTATCACAACCATAAGTTGATATTTTCTCTGATCATAGTCAGACCAACATTGCTACGACCCGTATTCGCACCGACAC” as the sequence, how does the “relative integration efficiency (log2)” value read?
Answer: Its value is -0.246 ± 0.14.

Question: Which “relative integration efficiency (log2)” value does the source give for “ACATTTGTTGATAACCAACGCCCCGTCGCCGGCCACCCATAAATTGATAATTATCAACAAACGCCCGGTCGCGGTACTCTGATCATAGTCAGACCAACATTGCTACGACCCGTATTCGCACCGACAC” here?
Answer: The value was -3.55 ± 0.48.

Question: Which “relative integration efficiency (log2)” value does the source give for “ACATTTGTTGATACAACCATAAAAGGATAATTACACCCATAAATTGATAATTATCCCACCCAATTTAACTATAACGCTCTGATCATAGTCAGACCAACATTGCTACGACCCGTATTCGCACCGACAC” here?
Answer: The value was 1.98 ± 0.22.

Question: “ACATTTGTTGATACAACCATTAAATGATAATTCCACCCATAACTTGATAATTATCACACCCAATTTAACTATAACGCTCTGATCATAGTCAGACCAACATTGCTACGACCCGTATTCGCACCGACAC” was tested. Which “relative integration efficiency (log2)” value did it give?
Answer: The value was 1.93 ± 0.17.

Question: Which “relative integration efficiency (log2)” value does the source give for “ACATTTGTTGATACAACCATAAAATGATAATAACACCCATAAAATGATAATTATCACACCCAATTTAACTATAACGCTCTGATCATAGTCAGACCAACATTGCTACGACCCGTATTCGCACCGACAC” here?
Answer: The value was 3.211 ± 0.011.

Question: “ACATTTGTCGATACAACCATAAAATGATAATTACCACCCATAAATTGATAATTATCACACCCATTTAACTATAACGCTCTGATCATAGTCAGACCAACATTGCTACGACCCGTATTCGCACCGACAC” was tested. Which “relative integration efficiency (log2)” value did it give?
Answer: The value was 1.62 ± 0.092.

Question: Which “relative integration efficiency (log2)” value does the source give for “ACATTTGTTGATACAACCATAAAATGATAATTACACCCATAAATTGATAATGCTCACACCCATAAATTGATATTGCCTCTGATCATAGTCAGACCAACATTGCTACGACCCGTATTCGCACCGACAC” here?
Answer: The value was 0.654 ± 0.025.

Question: For “ACATTTGTTGATACAACCATAAAAAGATAATTACACCCATAAATTGATAATAATGACACCGAATTTAACTATAACGCTCTGATCATAGTCAGACCAACATTGCTACGACCCGTATTCGCACCGACAC”, which “relative integration efficiency (log2)” value is on record?
Answer: Its value is 2.514 ± 0.018.

Question: Which “relative integration efficiency (log2)” value does the source give for “ACATTTGTTGATACAACCATAAAATGATAATTAATAATTATTTATAATCAGCAACTTAACCCACCCATAAATTGATAATTATCACACCCATAAATTGATATTGCCTCTGATCATAGTCAGACCAACA” here?
Answer: Its value is 0.044 ± 0.09.

Question: For “ACATTTCTTGATACAACCATAAAATGATAATTACACCCATAAATTCATAATTATCACACCCAATTTAACTATAACGCTCTGATCATAGTCAGACCAACATTGCTACGACCCGTATTCGCACCGACAC”, which “relative integration efficiency (log2)” value is on record?
Answer: The value was -0.103 ± 0.73.

Question: With “ACATTTGTTGATACAACCATAAAATGATAATTACACCCATAAATTGAGCATTATCACACCCATAAATTGATATTGCCTCTGATCATAGTCAGACCAACATTGCTACGACCCGTATTCGCACCGACAC” as the sequence, how does the “relative integration efficiency (log2)” value read?
Answer: The value was -0.422 ± 0.13.

Question: How did the “relative integration efficiency (log2)” value turn out when “ACATTTGTTGATACAACCATAAAATGATAATTACACCCATCAATTGATAATTATCCCACCCCATTTAACTATAACGCTCTGATCATAGTCAGACCAACATTGCTACGACCCGTATTCGCACCGACAC” was run?
Answer: Its value is 1.52 ± 0.21.

Question: Which “relative integration efficiency (log2)” value does the source give for “ACATTTCTTGATACAACCATAAAATGATAATTACACCCATAAATTCATCATTATCACACCCAATTTAACTATAACGCTCTGATCATAGTCAGACCAACATTGCTACGACCCGTATTCGCACCGACAC” here?
Answer: Its value is 0.193 ± 0.077.

Question: For “ACATTTGTTGATACTTGGATAAAATGATAATTACACCCATAAATTGATAATTATCACACCCATAAATTGATATTGCCTCTGATCATAGTCAGACCAACATTGCTACGACCCGTATTCGCACCGACAC”, which “relative integration efficiency (log2)” value is on record?
Answer: Its value is -1.07 ± 0.2.

Question: “ACATTTGTTGATACACCCATAAATTGATATTGCCACCCATAAATTGATATTGCTCACAACCATAAGTTGATATTTTCTCTGATCATAGTCAGACCAACATTGCTACGACCCGTATTCGCACCGACAC” was tested. Which “relative integration efficiency (log2)” value did it give?
Answer: Its value is -0.179 ± 0.051.

Question: For “ACATTTGTTGATACAACCATAAAATGATAATTAATAATTATTTATAATCAGCACACCCATAAATTGATAATTATCACACCCATAAATTGATATTGCCTCTGATCATAGTCAGACCAACATTGCTACG”, which “relative integration efficiency (log2)” value is on record?
Answer: The value was -2.77 ± 0.42.

Question: With “ACATTTGTTGATACAACCATAAAATGATAATTAATAATTATTTATAATCACACCCATAAATTGATAATTATCACACCCATAAATTGATATTGCCTCTGATCATAGTCAGACCAACATTGCTACGACC” as the sequence, how does the “relative integration efficiency (log2)” value read?
Answer: Its value is -0.35 ± 0.25.

Question: How did the “relative integration efficiency (log2)” value turn out when “ACATTTGTCGATACAACCATAAAACGATAATTACACCCATAAATGGATCATTATCACACCCAATTTAACTATAACGCTCTGATCATAGTCAGACCAACATTGCTACGACCCGTATTCGCACCGACAC” was run?
Answer: Its value is 0.741 ± 0.05.
